Experimental data from article doi:10.1101/2023.05.29.542777.

Legend:
Assay in all cases: co-IP
[1] = target: TbTim12-3X-HA (T. brucei)
[2] = target: TbTim10-3X-HA (T. brucei)
[3] = target: TbTim13-3X-HA (T. brucei)
TbTim9-3X-HA (T. brucei) = target: TbTim9-3X-HA (T. brucei)
[4] = target: TbTim8/13-3X-HA (T. brucei)
[5] = target: TbTim10-2X-Myc (T. brucei)

Question: For TbTim10-2X-Myc (natural protein), which percent of the input co-precipitated [1] is on record?
Answer: The percent of the input co-precipitated was under 10%.

Question: And the percent of the input co-precipitated [2]?
Answer: Its percent of the input co-precipitated is under 10%.

Question: And the percent of the input co-precipitated [3]?
Answer: The percent of the input co-precipitated was under 10%.

Question: What about the percent of the input co-precipitated (% of the input) (TbTim9-3X-HA (T. brucei)) of the same substance?
Answer: The percent of the input co-precipitated (% of the input) was 60.

Question: What about the percent of the input co-precipitated (% of the input) [4] of the same substance?
Answer: The percent of the input co-precipitated (% of the input) was 60.

Question: TbTim8/13-3X-HA (natural protein) was tested. Which percent of the input co-precipitated (% of the input) [5] did it give?
Answer: The percent of the input co-precipitated (% of the input) was 45.

Question: How did the percent of the input co-precipitated (% of the input) [5] turn out when TbTim9-3X-HA (natural protein) was run?
Answer: Its percent of the input co-precipitated (% of the input) is 35.

Question: For TbTim12-3X-HA (natural protein), which percent of the input co-precipitated (% of the input) [5] is on record?
Answer: Its percent of the input co-precipitated (% of the input) is 25.

Question: With TbTim10-3X-HA (natural protein) as the substance, how does the percent of the input co-precipitated (% of the input) [5] read?
Answer: Its percent of the input co-precipitated (% of the input) is 30.
